What was measured:
[1] = biological target: Human IgG4 monoclonal antibody (human); assay: ELISA; hIgG4 coated on wells as in the screening; 2.5 × 10^11 phage particles in 100 µL per well in DMEM with 5% FCS and 5 g/L ovalbumin, in triplicate; original phage library assayed beside the clones
[2] = biological target: Human IgG4 monoclonal antibody (human); assay: ELISA; data not shown: the same plates in DMEM with 5% FCS and 5 g/L ovalbumin, hIgG4-coated wells compared with control wells coated with 200 µL of 100 µg/mL lactoferrin in TBS

Binder | fold absorbance over the original phage library [1] [fold] | fold absorbance over lactoferrin-coated control wells [2] [fold] | ELISA signal [1] [AU] | fold ELISA signal over the original phage library [1] [fold]
TNIESLK [Clone 36 heptapeptide TNIESLK, displayed on M13 phage] | > 2.5 | > 3 | – | –
QPQMSHM [Clone 34 heptapeptide QPQMSHM, displayed on M13 phage] | > 2.5 | > 3 | – | –
CPSTHWK [Clone 1 heptapeptide CPSTHWK, displayed on M13 phage] | > 2.5 | > 3 | – | –
NCHKCWN [Clone 40 heptapeptide NCHKCWN, displayed on M13 phage] | > 2.5 | > 3 | > 0.85 | > 4
SHLSKNF [Clone 44 heptapeptide SHLSKNF, displayed on M13 phage] | > 2.5 | > 3 | – | –
NVQYFAV [Clone 3 heptapeptide NVQYFAV, displayed on M13 phage] | > 2.5 | > 3 | > 0.85 | > 4
ASHTQKS [Clone 5 heptapeptide ASHTQKS, displayed on M13 phage] | > 2.5 | > 3 | – | –

— PMC6404062
